Molecular target: GRK2-phosphorylated FLAG-tagged SMOOTHENED (near-full-length mouse SMO, residues 64-674) (mouse) (UniProt P56726)
Assay: pull-down; purified FLAG-SMO forms (18.2 uM) mixed with PKA-C (10 uM), captured on anti-FLAG M1 sepharose beads, 4°C 2 h; 20 mM HEPES pH 7.5, 150 mM NaCl, 3 mM CaCl2, 10 mM MgCl2, 1 mM ATP, 0.025% GDN, 1 uM SAG21k; eluted with FLAG peptide and EDTA; stain-free SDS-PAGE, densitometry

Sequence of UniProt P56726 (P56726 64-674): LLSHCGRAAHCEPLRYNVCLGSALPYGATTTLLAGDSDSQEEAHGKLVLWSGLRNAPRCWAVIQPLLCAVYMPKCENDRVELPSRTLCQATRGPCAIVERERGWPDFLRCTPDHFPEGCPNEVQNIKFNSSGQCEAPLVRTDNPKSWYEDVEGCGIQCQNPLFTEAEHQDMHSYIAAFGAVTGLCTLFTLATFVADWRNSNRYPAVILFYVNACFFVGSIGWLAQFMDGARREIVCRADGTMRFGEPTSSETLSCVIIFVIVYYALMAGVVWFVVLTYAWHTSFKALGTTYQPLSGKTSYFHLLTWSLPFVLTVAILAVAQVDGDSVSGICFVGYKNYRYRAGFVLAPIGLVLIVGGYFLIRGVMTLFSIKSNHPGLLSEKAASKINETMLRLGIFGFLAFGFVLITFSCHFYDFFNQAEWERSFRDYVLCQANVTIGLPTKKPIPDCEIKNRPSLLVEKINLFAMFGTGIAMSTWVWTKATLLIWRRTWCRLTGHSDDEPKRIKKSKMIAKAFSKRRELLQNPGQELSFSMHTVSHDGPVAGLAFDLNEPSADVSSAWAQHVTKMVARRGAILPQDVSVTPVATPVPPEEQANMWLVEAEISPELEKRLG

Substance: protein kinase A catalytic subunit (PKA-C), mouse (from UniProt P05132 1-351) (enzyme)
- PKA-C in the FLAG elution as percent of SMO: 25%

— article PMC11322411
